Test results published in the supplement of paper PMC12764529.
± gives the half width of the 95% confidence interval.

Key:
[1] = folding stability dG unfold from chymotrypsin proteolysis; higher = more stable
Experimental: (§1)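 Folding stability of de novo designed mini-proteins (<80 aa, no Cys; designed by TrROS, TrMRF, ProteinMPNN and the joint model) was measured by cDNA display proteolysis with trypsin and chymotrypsin. Each protease was used at 11 concentrations in a threefold dilution series plus a no-protease condition. K50 was inferred by Bayesian fitting of sequencing counts, and dG unfold was derived against a sequence-predicted unfolded-state K50 (Tsuboyama et al. method). Sequences shown include variable-length N-terminal GS-type padding (SAGGSAGG...) inside a display construct carrying a PA tag. Rows were kept only if the AF2 dimer inter-PAE was >15, to exclude likely homo-oligomers.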

[2] = folding stability dG unfold (combined trypsin and chymotrypsin); higher = more stable
Experimental: as §1

AARSVDVEVEELSTVTPAGGRTRLLRVRAYVPETGRTAEVPYRAVLLPDGSERPFGTAEELADRIARLLVSS [r1_77_TrMRF]
folding stability dG unfold [1]: 0.182 ± 0.17 kcal/mol | folding stability dG unfold [2]: -0.0373 ± 0.12 kcal/mol

PPVGPDAPVTPTTTPTPSGKTVTTTDRPLRREVTTTDPSTGTYTVTLTETDAAGRVLATRTETLSPEEVAAS [r1_380_JUSTAS]
folding stability dG unfold [1]: -0.0788 ± 0.36 kcal/mol | folding stability dG unfold [2]: -0.541 ± 0.31 kcal/mol

QIPPGAKVEFGNKEIEVPPGKELMIFNGHIMTQDDMEDMMKNMPDGMEMYRYKVEDNKGKIDKVRRMRMKPS [r1_304_TrROS]
folding stability dG unfold [1]: -0.102 ± 0.57 kcal/mol | folding stability dG unfold [2]: < -1 kcal/mol

SAAKPVVIEVGFDGKPVTVVVYPNPGRVRAYVPATNAVSEATVGEDGEVNLLLYNPADGKPLPANITVPSAG [r14_656_TrMRF]
folding stability dG unfold [1]: -0.973 ± 0.39 kcal/mol | folding stability dG unfold [2]: < -1 kcal/mol

SADKEAVRKIAEKFMQEPGFEPRGISPDGHIMFRPPGQGRMYRIDIDVEKDNDGLDVKIPDIEPVPMPDSAG [r14_20_TrROS]
folding stability dG unfold [1]: -0.0277 ± 0.31 kcal/mol | folding stability dG unfold [2]: < -1 kcal/mol

SAGDIEIEVEELGEGYKKITIRIKVDSIEEAIKEVEEIVRDFFSEEAEIVEIKIDPEKGIVEAVVIVPESAG [r5_810_TrMRF]
folding stability dG unfold [1]: 3.39 ± 0.4 kcal/mol

SAGDYDVEKDPDGYRVEHKNGDKRYVPPVPPPIPVVMIPIKDPEDLDEFANELGLNITDISDDWITMPASAG [r5_328_TrROS]
folding stability dG unfold [1]: 0.422 ± 0.13 kcal/mol | folding stability dG unfold [2]: -0.158 ± 0.27 kcal/mol

SAGGAKVTEVKVENGYVTVTVDGKLVAKAPPPPPPPKVRVRNADGEEEERSLEDLLAENPENLEIELESAGG [r13_802_TrROS_Hall]
folding stability dG unfold [1]: 0.359 ± 0.1 kcal/mol | folding stability dG unfold [2]: -0.0384 ± 0.28 kcal/mol

SAGGAPDIPILTASYSPDGVLYSSTTTPINGTLHYFPEDNPVVLATDPATGLTVPVGTLEDVKRLIASAGGS [r8_232_TrMRF]
folding stability dG unfold [1]: 0.208 ± 0.14 kcal/mol | folding stability dG unfold [2]: -0.37 ± 0.19 kcal/mol

SAGGAPIPTVSTRTTPLPGGSSRTTTTTTYTFPETGTVYTATTTTTASPGGSPTTTATTTTTALAAASAGGS [r16_113_JUSTAS]
folding stability dG unfold [1]: 0.0663 ± 0.26 kcal/mol | folding stability dG unfold [2]: -0.507 ± 0.23 kcal/mol

SAGGAPLAERTEPLPDGRTVRRVLEYDPEKRTVRVRTERWAPDGAAEPAEEVLDVPESATSPEFLLASAGGS [r8_461_JUSTAS]
folding stability dG unfold [1]: -0.606 ± 0.21 kcal/mol | folding stability dG unfold [2]: < -1 kcal/mol

SAGGAPVHLDTTATTIEPLPTGGPVLRVETRFPDGSTRTGDFASREELLARLEASPDAATIRLAAVASAGGS [r16_757_JUSTAS]
folding stability dG unfold [1]: 0.896 ± 0.056 kcal/mol | folding stability dG unfold [2]: 0.203 ± 0.096 kcal/mol

SAGGDARVARARIRLTRPFPDEDGVVRWEPVVPPGDPVEVGLVLEDDTLVANAVFDGRPVLATVRLESAGGS [r16_500_TrMRF]
folding stability dG unfold [1]: -0.407 ± 0.27 kcal/mol | folding stability dG unfold [2]: < -1 kcal/mol

SAGGDPEEQNKMMERMEKMKPIEPEPVRIPNGIEIEYWPAYGFVEIETWYRDPDGEPKPIGEGWVPVSAGGS [r16_243_TrROS]
folding stability dG unfold [1]: 0.286 ± 0.094 kcal/mol | folding stability dG unfold [2]: -0.147 ± 0.12 kcal/mol

SAGGEPGVSAEEAAERLRRELGLPGLERVLEVRLTRAVGDPAGRPPEAESLEVEVEVSPEVRERLAALSAGG [r13_552_JUSTAS]
folding stability dG unfold [1]: 0.599 ± 0.051 kcal/mol | folding stability dG unfold [2]: 0.00798 ± 0.068 kcal/mol

SAGGEPRLGRVLLDIDIAVDPERAEREEDREEALERALEIAERAEARLRELDPDVPVVVNIRLLDVGSAGGS [r8_183_TrMRF]
folding stability dG unfold [1]: 0.576 ± 0.031 kcal/mol | folding stability dG unfold [2]: 0.31 ± 0.17 kcal/mol

SAGGEVPVSAEAAAAYDRAVAEGGGGATVPVETPGGRVIVYDPAGTATVLGDDPRTFPLAEVTAFAPSAGGS [r16_664_JUSTAS]
folding stability dG unfold [1]: 0.923 ± 0.059 kcal/mol | folding stability dG unfold [2]: 0.246 ± 0.072 kcal/mol

SAGGGMGSSMKAKVEEEIPELKAADSTKVEITVTVTETRSFALPGGELATTTTTTTKTLEVEVPEEESAGGS [r8_203_JUSTAS]
folding stability dG unfold [1]: 0.208 ± 0.26 kcal/mol | folding stability dG unfold [2]: -0.217 ± 0.34 kcal/mol

SAGGGMSLTTTTLTFSIDEVDPEELYEELSKKGVTVYSGGKPSNPEEGMEALLKAHPNSSYTVLTRLSAGGS [r8_38_JUSTAS]
folding stability dG unfold [1]: -0.483 ± 0.54 kcal/mol | folding stability dG unfold [2]: < -1 kcal/mol

SAGGGPMPKPVEEVVEEEEDGLRVTTRITYLPTSSTTVVRTTRTVFDPRNGRPLETEELTETVPPGSSAGGS [r16_709_JUSTAS]
folding stability dG unfold [1]: -0.0368 ± 0.23 kcal/mol | folding stability dG unfold [2]: -0.181 ± 0.22 kcal/mol

SAGGGSKVIKVEYEKKDGGKVFIDDITDPGDSVEASIFNPKTGVKIPLPFDKLEELEDFIKEFVDKYSAGGS [r16_736_TrMRF]
folding stability dG unfold [1]: -0.154 ± 0.32 kcal/mol | folding stability dG unfold [2]: < -1 kcal/mol

SAGGGSMYDPETGTLRDENGNFFRTEEKKIPEVVIELPIELPDNTTLVIPVKFRTEEEAEKAVEELLSAGGS [r8_440_JUSTAS]
folding stability dG unfold [1]: 0.0268 ± 0.23 kcal/mol | folding stability dG unfold [2]: -0.191 ± 0.33 kcal/mol

SAGGGVTLTVDVRSKSGGSPEKFTLTLPVAVDPAGSADLDAARAAVAAALPPEAEVLELSLLPPDVPASAGG [r13_504_JUSTAS]
folding stability dG unfold [1]: 0.346 ± 0.17 kcal/mol | folding stability dG unfold [2]: < -1 kcal/mol

SAGGKKEYKILITGKSIPSDGIVYLPNPNKVNIKSNNNYTYKTIPITIIADNNPEKAKKIAKELGLGSAGGS [r16_467_TrMRF]
folding stability dG unfold [1]: 0.232 ± 0.34 kcal/mol | folding stability dG unfold [2]: < -1 kcal/mol

SAGGKKKKREIEIQIPVPDEEMKKNGMDPSEFAEELAKELQSLLPPGFEDIDLDVEPHPNGWPRIKIESAGG [r13_271_TrROS]
folding stability dG unfold [1]: -0.281 ± 0.043 kcal/mol | folding stability dG unfold [2]: -0.724 ± 0.3 kcal/mol

SAGGKKTVEIPIWMPYDDAKNIAKEAVEEAAASNDNVTVTIEIWQWEPDPNGKPEWQPIGKAEIKVPPSAGG [r13_974_TrROS]
folding stability dG unfold [1]: -0.013 ± 0.064 kcal/mol | folding stability dG unfold [2]: -0.43 ± 0.19 kcal/mol

SAGGSAGGSAGGKTITLDELRENFPPGYQIRDNNGKQHRINANEPIEEGDPIEIVSKDDISAGGSAGGSAGG [r7_507_TrROS]
folding stability dG unfold [1]: -0.206 ± 0.17 kcal/mol

SAGGSAGGSAGGPVIPKDVKVKVIFSNGEVAELEVDSVDDLQKKLNVPIPPNVNLVVSRGSAGGSAGGSAGG [r7_223_TrMRF]
folding stability dG unfold [1]: -0.759 ± 0.37 kcal/mol

SAGGSAGGSAGGSMVITIEYTGSVEDLIKKLKEEGLDVKVLEVKFDPKTGKYTVTLEVKSAGGSAGGSAGGS [r4_315_JUSTAS]
folding stability dG unfold [1]: 4.22 ± 0.2 kcal/mol

SATTTTETLPDGGVLTTTTLPDGSPATGLIDPANGAPFTATHPNGLRTVWSQSPSGKVTTLSTTNVPPSSAG [r14_877_JUSTAS]
folding stability dG unfold [2]: < -1 kcal/mol

SDEVSRPVDVRYYITLTEPPTSRPRRGPTDELEVESERPVTVTEMPAGQEEAVRAELEPRGVAVSVTPVVSA [r9_1209_JUSTAS]
folding stability dG unfold [2]: < -1 kcal/mol

SFKLPEGEEREFRLPDVPIEIEVDDGPGMIKINIYPPENPGKPVFEHEVPPGEIKPIEIPPELRDAMKKQSA [r9_1051_TrROS]
folding stability dG unfold [2]: < -1 kcal/mol

SIEITFRHDNYRVPVKIDPDDPKIKIEVYPDPENGEMQPLTEEDMENFAQEIADELREQRKQQRKEGKPPSA [r9_368_TrROS]
folding stability dG unfold [2]: < -1 kcal/mol

SKSRPIEVEFRMPYPNGGPMRMRATVLINPDNGKIGIPMRMETPGKEREYPLPPSMMNNLAKTVLDKLGLSA [r9_1136_TrROS]
folding stability dG unfold [2]: -0.789 ± 0.81 kcal/mol

SLEELAKAIAEKLGLPVEDVEVRVEKEVDEETGEERLRVTVLIKVDGKTYLIEIDLETGEIVEIKPLEDLSA [r9_1219_TrROS_Hall]
folding stability dG unfold [1]: 4.68 ± 0.23 kcal/mol

SMTVITAEPNLPPEKKAAVEAVRERVKANPDKPMDADEIKEFIKEEFGDPNFTILKVTIIPKAPPVVALSSA [r9_620_JUSTAS]
folding stability dG unfold [2]: < -1 kcal/mol

SNMPIFVRIEHNDGKEVEIPIKGSREQLKDNIQEEIQEYAQENGHKPRSIKVEVYDFGNNQEQTRTIPVKSA [r9_1193_TrROS]
folding stability dG unfold [2]: < -1 kcal/mol

SNTIMIMANVPPGPVRIKIEPKNGRRYEMPIPPGEPVMFHIPIPPGLPPGNKWKIEVENPDNGKEQEKDFSA [r9_275_TrROS]
folding stability dG unfold [2]: < -1 kcal/mol

SPNVRPYNFKIRDPNKEIEVPVWQPPDGPPMVNIKFKDPGKEVEIPFPMDDPEELLEDFAPDGYKIELTWSA [r9_384_TrROS]
folding stability dG unfold [2]: < -1 kcal/mol

SPTLPFPFPDGHPYMIHLNPEKNEIHIHNPESGRPYRIKVPGGKERRIPAGADSLDELKDLPPLKIEPMPSA [r9_205_TrROS]
folding stability dG unfold [2]: < -1 kcal/mol

SSAEEVARARFEAAGWDWRPLARDPVKRTVRFEVRPPDRPPRLYEVVVDPSRDTVNLEEDPATGRVVVPGSA [r9_1119_JUSTAS]
folding stability dG unfold [2]: < -1 kcal/mol

SSDDKEEQKKRQKAQAKPKPKMEPVWVPIEVRDPDNGRPFEIPVRMYRTPNGKIEPLPEEELKDWAKDLFSA [r9_1056_TrROS]
folding stability dG unfold [2]: < -1 kcal/mol

SSVKIEEKPLPDGTILVTITTPPENPEEVAEKVKEEVKAPVTVTSVEEVELEEGEKPLKVVKITIEVDKASA [r9_431_JUSTAS]
folding stability dG unfold [2]: < -1 kcal/mol

SSVNWKVLETKEEPETVVTLLENPENPELIVEVPVKRFEDPDSERREVTKTVWLPATGETLETEPAVIPLSA [r9_18_JUSTAS]
folding stability dG unfold [2]: < -1 kcal/mol

STLENIEYIKLPKNKTLPLPGGETISPDEEIAIDLDKKKYINKEELEELKKKIEEELEKKKPKENPKNLISA [r9_517_JUSTAS]
folding stability dG unfold [2]: < -1 kcal/mol

SYPRDPSGKITAKITITRDPDGIYRAEIDVVDKDNKPLARASAPYENPYPGVARLKEEAEALAEELEKKKSA [r9_739_TrMRF]
folding stability dG unfold [2]: < -1 kcal/mol
